# Assay results taken from patent publication US20220211858A1, “TUBULAR SUPRAMOLECULAR POLYMERS” (priority 2019, published 2022).
# Where two headings read alike, the source gives them in different places.
# Assays:
# HT-29 cells [1] = system: HT-29 cells
# Source text: Antitumor efficacy study of SAPDs at the same dose on a HT-29 tumor model. […] When the averaged tumor size reached 75-95 mm^3, mice were randomly divided into six groups. […] The tumor volumes and body weights were monitored and recorded every two or three days. The tumor volume was estimated by measuring the length and width with calipers and using the equation “tumor volume=(length×width^2)/2”. Mice were euthanized once the tumor volume reached 1000 mm^3.
# [2] = Drug release and chemical stability of SAPDs in PBS with or without GSH; type: physicochemical; details: for prodrug degraded: 37° C., 10 mM GSH, within 5 min; for remaining drugs: 96 h
# Procedure: Drug release and chemical stability studies of SAPDs. Drug release studies of four SAPDs were performed at a concentration of 200 μM in PBS buffer with or without the reducing agent glutathione (GSH). Briefly, 400 μM stock solutions of SAPDs in water were prepared and aged overnight. Stock solutions containing 2×PBS (20 mM) with or without 20 mM GSH were prepared 1 h before the experiment, and the pH was tuned to 7.4 with NaOH. The prodrug solutions were further diluted to 200 μM with 20 mM (2×) PBS buffer with or without GSH (20 mM) to give final solutions of 200 μM prodrug, 10 mM PBS and with or without 10 mM GSH. Three replicates of each SAPD were prepared with or without GSH and were incubated at 37° C. Samples with GSH were collected at 0 min, 5 min, 10 min, 15 min, 30 min, 1 h and 2 h, while samples without GSH were collected at 0 h, 6 h, 12 h, 24 h, 48 h, 72 h, 96 h and 120 h. To prevent further reaction after sample collection, the collected samples (50 μL each point) were acidified by adding 0.2 μL of 2M HCl, frozen with liquid nitrogen and stored at −30° C. The release profile was determined by analytical RP-HPLC using the following conditions: Varian Pursuit XRs C18 (5 μm, 150×4.6 mm); 362 nm detection wavelength; 1 mL/min flow rate; the gradient began at 15% to 85% acetonitrile containing 0.1% TFA by 15 min and back to initial gradient at 18 min. The calculated data points were plotted as a percentage of the total CPT concentration against time. Representative HPLC traces over time were also integrated for comparison.
# HT-29 cells [3] = assay: Antitumor efficacy of SAPDs at near MTD on a HT-29 tumor model; details: for mean tumor volume: day 28, SAPD 1 12 mg/kg, SAPD 2-4 36 mg/kg i.v. days 1, 5, 9, irinotecan 100 mg/kg i.p. days 1, 8, 15
# Procedure: Antitumor efficacy study of SAPDs at near MTD on a HT-29 tumor model. HT-29 tumor model was established as described above. When the averaged tumor size reached 70-110 mm^3, mice were randomly divided into six groups (n=5 for each group). Four different SAPDs were all i.v. dosed at near or slightly lower than their estimated MTDs. […] The irinotecan (i.p. injection, 100 mg/kg at days 1, 8 and 15) and the PBS groups were used as controls. All other protocols were similar to those in the above-mentioned efficacy study.
# [4] = Maximum tolerated dose (MTD) dose escalation study; type: in vivo, athymic nude mice; details: for Maximum % BW loss: n=3
# Procedure: Maximum tolerated dose (MTD) studies. MTD of SAPD 1 has been previously determined in our lab (Table 1). MTDs of other SAPDs were determined by dose escalation studies in healthy female athymic nude mice (Charles River, 12-13 weeks old). A single intravenous (i.v.) injection of SAPD was dosed at day 1 and the body weights of each mouse (n=3) were recorded every day for six days and every the other day until two weeks. The dosing volume was determined based upon a ratio of 200 μL for a 20 g mouse. Doses of SAPDs used in the studied were 108, 72, 54, 45, 36 and 18 mg/kg (CPT equivalent).
# [5] = Zeta potential measurement; type: physicochemical; details: assembled SAPDs in PBS buffer
# Procedure: TT solutions of 200 μM in 1×-DPBS buffer (pH=7.4) were prepared by directly mixing identical volumes of a 400 μM aqueous TT solution and 2×-DPBS buffer (pH=7.4). In some embodiments, solutions at a concentration of 2 mM in PBS buffer (pH=7.4) were prepared and aged overnight prior to zeta potential measurement. TT solutions of 200 μM in 1×-DPBS buffer (pH=5.0) were prepared by mixing identical volumes of a 400 μM aqueous TT solution and 2×-DPBS buffer (pH=5.0), which was pretreated with 6 M HCl. The zeta potential measurements were performed on a Zetasizer Nano ZS90 (Malvern Instruments Ltd., UK). The prepared solutions were loaded in capillary cells and equilibrated for 2 min prior to measurement. The average values and their standard deviations are calculated from three replicate measurements. The zeta potential of the assembled structures was obtained by measuring the electrophoretic movement of the nanostructures under the applied electric field, where the movement velocity is determined by phase analysis light scattering. Variations of the zeta potential value over time were determined by measuring the solutions at different aging time points (1, 2, 4 and 7 days) and are plotted in FIG. 10.
# [6] = female, athymic nude, mouse, in vivo, iv, single i.v. injection, CPT equivalent, healthy athymic nude mice
# [7] = single i.v. dose 18 mg/kg (CPT equivalent)
# [8] = single i.v. dose 36 mg/kg (CPT equivalent)
# [9] = single i.v. dose 45 mg/kg (CPT equivalent)
# [10] = single i.v. dose 54 mg/kg (CPT equivalent)
# [11] = single i.v. dose 72 mg/kg (CPT equivalent)
Structure (SMILES),prodrug degraded ([2]; 200 μM) [%],remaining drugs ([2]; without GSH) [%],mean tumor volume (HT-29 cells [3]) [mm^3],Survival/Total ([4]; single i.v. dose 18 mg/kg),day of maximum BW loss ([4]; single i.v. dose 18 mg/kg) [days],"Maximum % BW loss [4, 7] [%]",Survival/Total ([4]; single i.v. dose 36 mg/kg),day of maximum BW loss ([4]; single i.v. dose 36 mg/kg) [days],"Maximum % BW loss [4, 8] [%]",Survival/Total ([4]; single i.v. dose 45 mg/kg),day of maximum BW loss ([4]; single i.v. dose 45 mg/kg) [days],"Maximum % BW loss [4, 9] [%]",Survival/Total ([4]; single i.v. dose 54 mg/kg),day of maximum BW loss ([4]; single i.v. dose 54 mg/kg) [days],"Maximum % BW loss [4, 10] [%]",Survival/Total ([4]; single i.v. dose 72 mg/kg),day of maximum BW loss ([4]; single i.v. dose 72 mg/kg) [days],"Maximum % BW loss [4, 11] [%]",Survival/Total ([4]; single i.v. dose 108 mg/kg),ζ-Potential [5] [mV],other results
CC[C@]1(OC(=O)OCCSSC[C@@H](NC(C)=O)C(=O)N[C@@H](CCCCNC(=O)[C@@H](CSSCCOC(=O)O[C@]2(CC)C(=O)OCc3c2cc2n(c3=O)Cc3cc4ccccc4nc3-2)NC(C)=O)C(=O)N[C@@H](CCCCNC(=O)CCOCCOCCOCCOCCOC)C(=O)N[C@@H](CCCCNC(=O)CCOCCOCCOCCOCCOC)C(=O)N[C@@H](CCCCNC(=O)CCOCCOCCOCCOCCOC)C(=O)N[C@@H](CCCCNC(=O)CCOCCOCCOCCOCCOC)C(N)=O)C(=O)OCc2c1cc1n(c2=O)Cc2cc3ccccc3nc2-1 [SAPD 2],45,86,330,3/3,5,6.2,3/3,6,2.1,3/3,2,4.0,3/3,2,3.5,2/3,2,11.4,0/3,−7.4,"median survival (HT-29 cells [1]; SAPDs 10 mg/kg i.v. days 1, 5, 9, 13, irinotecan 100 mg/kg i.p. days 1, 8, 15): 46 days; mean tumor volume (HT-29 cells [1]; day 25, SAPDs 10 mg/kg (CPT equivalent) i.v. days 1, 5, 9, 13, irinotecan 100 mg/kg i.p. days 1, 8, 15): 255 mm^3; conjugates remaining intact ([2]; 200 μM, without GSH, 120 h): 87%; treatment related death (HT-29 cells [3]; 36 mg/kg i.v. days 1, 5, 9, n=5): one treatement related death; MTD at 2 weeks [4, 6]: 54 mg/kg"
CC[C@]1(OC(=O)OCCSSC[C@@H](NC(C)=O)C(=O)N[C@@H](CCCCNC(=O)[C@@H](CSSCCOC(=O)O[C@]2(CC)C(=O)OCc3c2cc2n(c3=O)Cc3cc4ccccc4nc3-2)NC(C)=O)C(=O)N[C@@H](CCCCNC(=O)CCOCCOCCOCCOCCOC)C(=O)N[C@@H](CCCCNC(=O)CCOCCOCCOCCOCCOC)C(=O)N[C@@H](CCCCNC(=O)CCOCCOCCOCCOCCOC)C(=O)N[C@@H](CCCCNC(=O)CCOCCOCCOCCOCCOC)C(=O)N[C@@H](CCCCNC(=O)CCOCCOCCOCCOCCOC)C(=O)N[C@@H](CCCCNC(=O)CCOCCOCCOCCOCCOC)C(N)=O)C(=O)OCc2c1cc1n(c2=O)Cc2cc3ccccc3nc2-1 [SAPD 3],93,63,322,3/3,4,5.5,3/3,4,1.4,3/3,4,2.5,3/3,1,1.6,3/3,,0,2/3,−6.5,"mean tumor volume (HT-29 cells [1]; mouse, in vivo): 304 mm^3; median survival (HT-29 cells [1]; mouse, in vivo): 42 days; MTD [4, 6]: 72 mg/kg"
CC[C@]1(OC(=O)OCCSSC[C@@H](NC(C)=O)C(=O)N[C@@H](CCCCNC(=O)[C@@H](CSSCCOC(=O)O[C@]2(CC)C(=O)OCc3c2cc2n(c3=O)Cc3cc4ccccc4nc3-2)NC(C)=O)C(=O)N[C@@H](CCCCNC(=O)CCOCCOCCOCCOCCOC)C(=O)N[C@@H](CCCCNC(=O)CCOCCOCCOCCOCCOC)C(=O)N[C@@H](CCCCNC(=O)CCOCCOCCOCCOCCOC)C(=O)N[C@@H](CCCCNC(=O)CCOCCOCCOCCOCCOC)C(=O)N[C@@H](CCCCNC(=O)CCOCCOCCOCCOCCOC)C(=O)N[C@@H](CCCCNC(=O)CCOCCOCCOCCOCCOC)C(=O)N[C@@H](CCCCNC(=O)CCOCCOCCOCCOCCOC)C(=O)N[C@@H](CCCCNC(=O)CCOCCOCCOCCOCCOC)C(N)=O)C(=O)OCc2c1cc1n(c2=O)Cc2cc3ccccc3nc2-1 [SAPD 4],92,61,408,3/3,5,3.1,3/3,2,7.2,3/3,,0,3/3,3,3.9,2/3,1,1.2,1/3,−5.9,"mean tumor volume (HT-29 cells [1]; mouse, in vivo): 286 mm^3; median survival (HT-29 cells [1]; mouse, in vivo): 47 days; MTD [4, 6]: 72 mg/kg"
